Source: article doi:10.1101/235556

Target: Polyhydroxyalkanoate synthase PhaC from Aquitalea sp. USM4 (JCM 19919) (Aquitalea sp. USM4 (JCM 19919))
Assay: SEC

Polyhydroxyalkanoate synthase PhaC from Aquitalea sp. USM4 (JCM 19919) (enzyme)
stoichiometry N: 2
